{"source": "paper PMC3873694", "key": {"[1]": {"molecular_target": "fetal muscle nicotinic acetylcholine receptor (α1β1γδ), mouse (mouse) (UniProt P04756)"}, "[2]": {"molecular_target": "fetal muscle nicotinic acetylcholine receptor (α1β1γδ), mouse (mouse) (UniProt P04756)", "remark": "listed apart in the source"}, "[3]": {"molecular_target": "adult muscle nicotinic acetylcholine receptor (α1β1εδ), mouse (mouse) (UniProt P04756)"}}}
{"substance": "Fraction 4 of the tentacle venom extract (TVE) of the jellyfish Aurelia aurita", "values": [{"measurement": "percent block of ACh-elicited currents at 1.5, 3 and 4.5 μg total protein of fraction 4 (25%, 50%, 96%), voltage clamp on X. laevis oocytes", "setting": "[1]", "value": 96, "unit": "%"}, {"measurement": "IC50 of inhibition of ACh-elicited currents, two-electrode voltage clamp on X. laevis oocytes expressing the receptor", "setting": "[2]", "value": 1770, "unit": "µg/mL"}, {"measurement": "IC50 of inhibition of ACh-elicited currents, two-electrode voltage clamp on X. laevis oocytes expressing the receptor", "setting": "[3]", "value": 2280, "unit": "µg/mL"}]}
